Consider 2 molecules from patent publication US20250334594A1 (ELEDON PHARMACEUTICALS, published 2025).

For assay [1], the target named is recombinant human FcγRI (human) (UniProt P12314). As to the kind of experiment: ELISA: antibody coated (2 µg/ml), recombinant human FcγRI titrated, mouse anti-CD64 + HRP anti-mouse IgG, A450. For orientation: An ELISA detects its analyte on a solid surface through an enzyme-linked reagent.
For assay [2], the target named is control protein CTLA4-IgG1 (UniProt P16410 38-161, limits assumed). As to the kind of experiment: sandwich ELISA: protein coated (2 µg/ml), huCD40L titrated, biotinylated goat anti-CD40L polyclonal + streptavidin-HRP, A450.
Description: All washes were performed using 3 washes of 250 μl of PBS. […] The plate was washed and then blocked with 2% bovine serum albumin/PBS for 1 hour at room temperature. The plate was washed and recombinant human CD40L protein (Santa Cruz Biotechnology, Santa Cruz, California, USA) was added to the plate titrated out by 2-fold dilution starting at 2000 ng/ml. After binding and washing, the bound CD40L protein was detected using 100 μl a biotinylated goat anti-human CD40L polyclonal antibody (200 ng/ml) and 100 μl a streptavidin-horseradish peroxidase conjugate at 100 ng/ml. Colorimetric detection was performed with the chromagen TMB (3,3′,5,5′-tetramethylbenzidine) and spectrophotometric analysis of absorption at 450 nm.

Usually EC50 (read off the curve) stands for the concentration giving half of the maximal effect.

Chain of recombinant human FcγRI (human) (P12314 16-288 limits assumed): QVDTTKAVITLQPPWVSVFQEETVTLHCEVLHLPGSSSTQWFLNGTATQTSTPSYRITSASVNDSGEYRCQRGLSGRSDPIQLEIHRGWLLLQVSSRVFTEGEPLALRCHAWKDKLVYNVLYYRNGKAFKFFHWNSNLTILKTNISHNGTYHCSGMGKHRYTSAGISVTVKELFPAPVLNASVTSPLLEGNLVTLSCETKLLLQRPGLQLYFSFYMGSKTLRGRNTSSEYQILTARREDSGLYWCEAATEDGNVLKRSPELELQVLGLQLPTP
Chain of control protein CTLA4-IgG1 (P16410 other isoform, or with tags, fused parts or gaps limits assumed): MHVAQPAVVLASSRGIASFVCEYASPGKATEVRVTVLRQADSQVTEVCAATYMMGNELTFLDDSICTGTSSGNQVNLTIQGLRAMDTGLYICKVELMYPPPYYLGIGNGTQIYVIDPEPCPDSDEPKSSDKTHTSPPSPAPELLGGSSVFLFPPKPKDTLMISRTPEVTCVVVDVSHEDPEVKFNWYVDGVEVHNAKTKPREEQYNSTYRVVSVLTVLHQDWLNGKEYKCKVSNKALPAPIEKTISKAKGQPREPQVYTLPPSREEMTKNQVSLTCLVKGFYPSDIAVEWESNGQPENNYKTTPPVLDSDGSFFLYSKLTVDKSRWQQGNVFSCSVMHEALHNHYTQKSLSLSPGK

For “anti-CD40L antibody 5c8 (reference antibody)”, the EC50 (read off the curve) in assay [1] worked out at 0.2 µg/mL.

B1: recombinant human CD40L protein (Santa Cruz Biotechnology) (ligand, UniProt P29965 113-261, looked up)
chain: MQKGDQNPQIAAHVISEASSKTTSVLQWAEKGYYTMSNNLVTLENGKQLTVKRQGLYYIYAQVTFCSNREASSQAPFIASLCLKSPGRFERILLRAANTHSSAKPCGQQSIHLGGVFELQPGASVFVNVTDPSQVSHGTGFTSFGLLKL
notes: Bought reagent; also called CD154
For the molecule B1, the binding result in assay [2] is given as “no binding (tested: 2 micrograms/mL)”.
